Patent publication CN114685656A (鲁南制药集团股份有限公司, dated 2022)
Where a chain is given by its changes, count along the chain named. Each block holds one molecule with its values, some of them ahead of it.

Experiments:
[1] = target: 人SIRPα受体 on CHO cells (CHO-huSIRPα) (human) (UniProt P78324); experiment: flow cytometry on CHO-huSIRPα cells, PE anti-mouse IgG Fc
[2] = target: 猴SIRPα受体 on CHO cells (CHO-cyno-SIRPα) (monkey (cyno)); experiment: flow cytometry on CHO-cyno-SIRPα cells, PE anti-mouse IgG Fc
重组hSIRPα [3] = target: T1, 重组hSIRPα (human, UniProt P78324 31-370, limits assumed); experiment: competition ELISA on coated hSIRPα (1 μg/ml) against biotinylated CD47-Fc (6 μg/ml)
T1 construct: also called SIRPα蛋白; SIRPα抗原

重组hu-SIRPα-his = 重组hu-SIRPα-his (human, UniProt P78324 31-370, limits assumed); experiment: ELISA on coated hu-SIRPα-his (0.5 μg/ml), anti-mouse IgG-HRP
[4] = target: 猴SIRPα受体 on CHO cells (CHO-cyno-SIRPα) (monkey (cyno)); experiment: flow cytometry, hybridoma supernatant on CHO-cyno-SIRPα cells, PE anti-mouse IgG Fc
[5] = target: 人SIRPα受体 on CHO cells (CHO-huSIRPα) (human) (UniProt P78324); experiment: flow cytometry, hybridoma supernatant on CHO-huSIRPα cells, PE anti-mouse IgG Fc
重组hSIRPg-his [6] = target: T2, 重组hSIRPg-his (human, UniProt Q9P1W8 29-360, limits assumed); experiment: ELISA on coated hSIRPg-his (1 μg/ml), anti-mouse IgG-HRP
T2 construct: also called sirp-γ

重组hSIRPα [7] = target: T1, 重组hSIRPα; experiment: SPR (Biacore T200), antibody captured on Protein A chip, SIRPα protein as analyte, 1:1 Langmuir fit
重组hSIRPg-his [8] = target: T2, 重组hSIRPg-his; experiment: competition ELISA on coated hSIRPg-his (1 μg/ml) against biotinylated CD47-Fc (6 μg/ml)

- MFI [1]: 86.6 MFI
- MFI [2]: 76.4 MFI
Molecule: mIgG (antibody)

- IC50 (重组hSIRPα [3]): 0.121 µg/mL
- EC50 (重组hu-SIRPα-his): 0.0225 µg/mL
Molecule: SE5A5 (antibody)

- MFI [4]: 7570 MFI
- MFI [5]: 17200 MFI
- binding result (重组hSIRPg-his [6]): no binding
- IC50 (重组hSIRPα [3]): 0.0653 µg/mL
- Kd (重组hSIRPα [7]): ~0.01 nM
- EC50 (重组hu-SIRPα-his): 0.00587 µg/mL
B1: 40F3 (antibody, V domains shown)
VH: QVQLQQPGAELGKPGASVKLSCKASGYTFSSYYIYWLKQRPGQGLEWIGGINPSNDDTHLTEKFKSKATLIADRSSSTAYIQLSSLTSEDSAVYYCTRSYYANSWFAYWGQGTLVTVSA
VL: DIVLTQSPLSLPVSLGDQASISCRSSQTIVHSNGNTYLAWYLQKPGQSPKLLIYKVSNRFSGVPDRFSGSGSGTEFTLKISRVEAEDLGVYYCFQGSHVPYTFGGGTKLEIK
notes: also called 抗SIRPα抗体40F3

- MFI [4]: 6980 MFI
- MFI [5]: 13600 MFI
- IC50 (重组hSIRPα [3]): 0.121 µg/mL
- IC50 (重组hSIRPg-his [8]): 0.196 µg/mL
- EC50 (重组hu-SIRPα-his): 0.00736 µg/mL
B2: 52B3 (antibody, V domains shown)
VH: EVQLQQSGAELVRSGASVKMSCKASDYTFTSYNLHWVKQTPGQGLEWIGYIYPGNGNTKYSQKFKGKATLTADTSSSTAYMQISSLTSEDSAVYFCTRNYDYYFYTMGYWGQGTTVTVSS
VL: DIVLTQSPKFMSTSVGDRVNITCKASQDVCTAVAWYQQKPGQSPKLLIYSASYRYTGVPDRFTGSGSRTDFTFTISSVQAEDLAVYYCQQHYSTPLTFGAGTKLELK
notes: also called 抗SIRPα抗体52B3

- MFI [4]: 9230 MFI
- MFI [5]: 18500 MFI
- IC50 (重组hSIRPα [3]): 0.0633 µg/mL
- Kd (重组hSIRPα [7]): ~0.01 nM
- EC50 (重组hu-SIRPα-his): 0.00546 µg/mL
B3: 57B10 (antibody, V domains shown)
VH: B2 VH with Q3K, Q6E, D26G, L34M, V37I, N57A, K59N, S61N, T97A, G108D
VL: B2 VL with P8T, N20S, C30S, Y86F, Y92F, T94A
notes: also called 抗SIRPα抗体57B10

- MFI [4]: 4560 MFI
- MFI [5]: 9520 MFI
- IC50 (重组hSIRPα [3]): 0.15 µg/mL
- EC50 (重组hu-SIRPα-his): 0.0235 µg/mL
B4: 36G4 (antibody, V domains shown)
VH: EVQLVESGGGLVQPGGSLKLSCAASGFTFSNYGMSWVRQTPDKRLELVATINSNGGDTSYPDSVRGRFTISRDNAKNTLYLQMSSLKSEDTAMYYCTRGGWSWFAYWGQGTLVTVSA
VL: DIVLTQSPTSLAVSLGQRATISCRASESADSYGNSYMNWYQQKPGQPPKLLIYLASNLESGVPARFSGSGSRTDFTLTIDPVEADDAATYYCQQINEDPYTFGGGTKLEIK
notes: also called 抗SIRPα抗体36G4

- IC50 (重组hSIRPg-his [8]): 0.0394 µg/mL
B5: Kwar23 (antibody, V domains shown)
VH: EVQLQQSGAELVKPGASVKLSCTASGFNIKDYYIHWVQQRTEQGLEWIGRIDPEDGETKYAPKFQDKATITADTSSNTAYLHLSSLTSEDTAVYYCARWGAYWGQGTLVTVSS
VL: QIVLTQSPAIMSASPGEKVTLTCSASSSVSSSYLYWYQQKPGSSPKLWIYSTSNLASGVPARFSGSGSGTSYSLTISSMEAEDAASYFCHQWSSYPRTFGAGTKLELK

- MFI [4]: 5000 MFI
- MFI [5]: 9270 MFI
- IC50 (重组hSIRPα [3]): 0.248 µg/mL
- EC50 (重组hu-SIRPα-his): 0.0192 µg/mL
B6: 36D6 (antibody, V domains shown)
VH: EVQLQESGPELKKPGETVKISCKASGYTFTKYGMNWVKQAPGKGLKWLAWINTDTGEAKYSDDFKGRFAFSLETSASIVYLQINNLKNEDTATYFCARGESYSNYVRFVYWGQGTTVTVSS
VL: DIVMTQSHKFMSTSVGDRVSITCKASQDVNTAVAWYQQKAGHSPKLLIYWTSTRHTGVPDRFTGSGSGTDYTLTISSVQAEDLTLYYCQQHYSTPWTFGGGTKLEIK
notes: also called 抗SIRPα抗体36D6
